Results: patent US20110263454A1, “Methods of Identifying Functional Characteristics of Promoters, Transcription Modifying Proteins and Transcription Modulating Agents” (Salk Institute for Biological Studies, priority 2008, published 2011)

B1: RARg: Retinoic acid receptor γ (NR1B3), nuclear hormone receptor cDNA driver (protein, UniProt P13631 1-454, looked up)
Retinoic acid receptor gamma: MATNKERLFAAGALGPGSGYPGAGFPFAFPGALRGSPPFEMLSPSFRGLGQPDLPKEMASLSVETQSTSSEEMVPSSPSPPPPPRVYKPCFVCNDKSSGYHYGVSSCEGCKGFFRRSIQKNMVYTCHRDKNCIINKVTRNRCQYCRLQKCFEVGMSKEAVRNDRNKKKKEVKEEGSPDSYELSPQLEELITKVSKAHQETFPSLCQLGKYTTNSSADHRVQLDLGLWDKFSELATKCIIKIVEFAKRLPGFTGLSIADQITLLKAACLDILMLRICTRYTPEQDTMTFSDGLTLNRTQMHNAGFGPLTDLVFAFAGQLLPLEMDDTETGLLSAICLICGDRMDLEEPEKVDKLQEPLLEALRLYARRRRPSQPYMFPRMLMKITDLRGISTKGAERAITLKMEIPGPMPPLIREMLENPEMFEDDSSQPGPHPNASSEDEVPGGQGKGGLKSPA
B2: PPARd: Peroxisome proliferator activated receptor δ (NR1C2), cDNA driver (protein, UniProt Q03181 1-441, looked up)
Peroxisome …: MEQPQEEAPEVREEEEKEEVAEAEGAPELNGGPQHALPSSSYTDLSRSSSPPSLLDQLQMGCDGASCGSLNMECRVCGDKASGFHYGVHACEGCKGFFRRTIRMKLEYEKCERSCKIQKKNRNKCQYCRFQKCLALGMSHNAIRFGRMPEAEKRKLVAGLTANEGSQYNPQVADLKAFSKHIYNAYLKNFNMTKKKARSILTGKASHTAPFVIHDIETLWQAEKGLVWKQLVNGLPPYKEISVHVFYRCQCTTVETVRELTEFAKSIPSFSSLFLNDQVTLLKYGVHEAIFAMLASIVNKDGLLVANGSGFVTREFLRSLRKPFSDIIEPKFEFAVKFNALELDDSDLALFIAAIILCGDRPGLMNVPRVEAIQDTILRALEFHLQANHPDAQYLFPKLLQKMADLRQLVTEHAQMMQRIKKTETETSLHPLLQEIYKDMY
B3: FXR: Farnesoid X Receptor (NR1H4), cDNA driver (protein, UniProt Q96RI1 1-486, looked up)
Bile acid receptor: MVMQFQGLENPIQISPHCSCTPSGFFMEMMSMKPAKGVLTEQVAGPLGQNLEVEPYSQYSNVQFPQVQPQISSSSYYSNLGFYPQQPEEWYSPGIYELRRMPAETLYQGETEVAEMPVTKKPRMGASAGRIKGDELCVVCGDRASGYHYNALTCEGCKGFFRRSITKNAVYKCKNGGNCVMDMYMRRKCQECRLRKCKEMGMLAECMYTGLLTEIQCKSKRLRKNVKQHADQTVNEDSEGRDLRQVTSTTKSCREKTELTPDQQTLLHFIMDSYNKQRMPQEITNKILKEEFSAEENFLILTEMATNHVQVLVEFTKKLPGFQTLDHEDQIALLKGSAVEAMFLRSAEIFNKKLPSGHSDLLEERIRNSGISDEYITPMFSFYKSIGELKMTQEEYALLTAIVILSPDRQYIKDREAVEKLQEPLLDVLQKLCKIHQPENPQHFACLLGRLTELRTFNHHHAEMLMSWRVNDHKFTPLLCEIWDVQ

Tested on: mNPY promoter
Assay: NHR-promoter luciferase screen, mNPY promoter
Assay type: cell-based, mouse
Conditions: Table 6d; luciferase activity relative to control (control = 1.00)
Description: (§1) The use, feasibility, and reproducibility of the functional NHR-promoter screen in a 48-well format have been tested validated. Briefly, there were co-expressed 50 ng of each NHR/NHR homodimer or NHR/RXR heterodimer with 100 ng promoter/luciferase construct and 50 ng of LacZ (as a control for transfection efficiency) in CV-1 cells using Fugene HD (Roche) as a transfection reagent (alternatively or additionally, a CMV-YFP construct can be used as a transfection control). Each of the nuclear hormone receptors that were used in these experiments was cloned into a pcDNA3.1 vector and comprised a C-terminally linked V5H6 tag. Twenty-four hours after transfection, appropriate ligands were added, where applicable, (see Table 5 for various ligands and concentrations and after 48 hrs, samples were assayed for luciferase and LacZ activity. To measure for luciferase activity 15 ul of sample was added to 30 ul of luciferase buffer (20 mM tricine, 1.07 mM MgCarbonate, 2.67 mM MgSulfate, 0.1 mM Naz-EDTA, 5 mM DTT, 5 mM ATP, 0.15 mg/ml CoA, 0.5 mM Luciferin), mixed briefly, and run in a Perkin Elmer Victor 5 luminometer. Thus, the functional NHR-promoter screen was used to observe the transcriptional activity of 29 promoters from various physiological pathways including inflammation, lipid and sugar metabolism, cholesterol transport, xenobiotic metabolism, and circadian rhythm.
(§2) The promoters that facilitate transcription of the indicated gene products that were tested using the protocols described herein are listed in the first row of the table. The nuclear hormone receptors and, where applicable, ligands that were assayed for their transcriptional effects on the promoters are listed in the first column of the table. The data represent the luciferase activity of each sample normalized to both the lacZ activity of that sample and to a control, e.g., no NHR or ligand, as customary in the art. As described previously, these normalizations allow the transcriptional activity of each reporter cell to be compared to other samples.
(§3) Tables 7-40 show the transcriptional effects of the hormone receptors, and, where applicable, ligands (orphan receptors are screened without ligand), on each individual promoter. […] The control data of each table are shown in their last rows.

Question: For B1, which “Results of assays of transcription factor (+/- ligand) with mNPY” value (“Results” below) is on record?
Answer: 1.20

Question: Which “Results” value does the source give for B2 here?
Answer: 0.70

Question: How did the “Results” value turn out when B3 was run?
Answer: 0.92

Same assay, conditions: mNPY promoter; HR component with or without ligand

Question: Which “Luc. act., normalized to lacZ” value does the source give for B1 here?
Answer: 100.5

Question: With B2 as the molecule, how does the “Luc. act., normalized to lacZ” value read?
Answer: 58.5

Question: Which “Luc. act., normalized to lacZ” value does the source give for B3 here?
Answer: 77.7

Same assay, conditions: mNPY promoter; HR component with or without ligand; relative to control

Question: Which “Normalized Luc. act., normalized to control” value does the source give for B1 here?
Answer: 1.2

Question: How did the “Normalized Luc. act., normalized to control” value turn out when B2 was run?
Answer: 0.7

Question: Which “Normalized Luc. act., normalized to control” value does the source give for B3 here?
Answer: 0.9

Tested on: hTNFa promoter
Assay: NHR-promoter luciferase screen, hTNFa promoter
Assay type: cell-based, human
Conditions: TNFa promoter; HR component without or with ligand
Description: as §1, §2, §3

Question: How did the “Luc. act., normalized to lacZ” value turn out when B1 was run?
Answer: 1458.6

Question: What about the “Normalized Luc. act., normalized to control” value of the same molecule?
Answer: 1.5

Question: What does the source list for B2?
Answer: Luc. act., normalized to lacZ: 1138.3; Normalized Luc. act., normalized to control: 1.2

Question: For B3, which “Luc. act., normalized to lacZ” value is on record?
Answer: 974.6

Question: What about the “Normalized Luc. act., normalized to control” value of the same molecule?
Answer: 1.0

Same assay, conditions: transcription factor +/- ligand; control = 1.00

Question: How did the “hTNFa promoter reporter activity” value turn out when B1 was run?
Answer: 1.48

Question: B2 was tested. Which “hTNFa promoter reporter activity” value did it give?
Answer: 1.16

Question: B3 was tested. Which “hTNFa promoter reporter activity” value did it give?
Answer: 0.99

Tested on: hCAR promoter
Assay: NHR-promoter luciferase screen, hCAR promoter
Assay type: cell-based, human
Conditions: hCAR promoter-luciferase, CV-1 cells, NHR +/- ligand, control = 1.00
Description: as §1, §2, §3

Question: For B1, which “luciferase activity normalized to lacZ activity and to a control, hCAR” value (“luciferase activity normalized” for short) is on record?
Answer: 0.99

Question: For B2, which “luciferase activity normalized” value is on record?
Answer: 1.22

Question: For B3, which “luciferase activity normalized” value is on record?
Answer: 0.78

Same assay, conditions: hCAR promoter; HR/ligand component

Question: With B1 as the molecule, how does the “Luc. act., normalized to lacZ” value read?
Answer: 31.4

Question: And the “Normalized Luc. act., normalized to control” value?
Answer: 1.0

Question: With B2 as the molecule, how does the “Luc. act., normalized to lacZ” value read?
Answer: 38.6

Question: What about the “Normalized Luc. act., normalized to control” value of the same molecule?
Answer: 1.2

Question: B3 was tested. Which “Luc. act., normalized to lacZ” value did it give?
Answer: 24.6

Question: What about the “Normalized Luc. act., normalized to control” value of the same molecule?
Answer: 0.8
